T1: Bud14, P27637
T1 sequence (P27637 247-328, looked up): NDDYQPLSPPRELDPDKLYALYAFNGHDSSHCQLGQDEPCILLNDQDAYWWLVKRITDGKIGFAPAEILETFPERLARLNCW

T2: Pex13, P80667
T2 sequence (P80667 295-386, looked up): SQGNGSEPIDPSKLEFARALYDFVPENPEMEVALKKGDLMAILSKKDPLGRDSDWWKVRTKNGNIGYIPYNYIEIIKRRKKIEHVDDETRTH

T3: Bbc1, P47068
T3 sequence (P47068 1-78, looked up): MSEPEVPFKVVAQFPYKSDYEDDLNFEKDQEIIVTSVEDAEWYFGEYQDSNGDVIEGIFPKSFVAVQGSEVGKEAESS

T4: Abp1, P15891
T4 sequence (P15891 535-592, looked up): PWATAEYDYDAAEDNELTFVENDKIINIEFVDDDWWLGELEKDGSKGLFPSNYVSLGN

T5: Nbp2, Q12163
T5 sequence (Q12163 103-180, looked up): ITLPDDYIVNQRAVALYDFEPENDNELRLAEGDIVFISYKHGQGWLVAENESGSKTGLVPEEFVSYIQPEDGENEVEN

T6: Boi2, P39969
T6 sequence (P39969 32-116, looked up): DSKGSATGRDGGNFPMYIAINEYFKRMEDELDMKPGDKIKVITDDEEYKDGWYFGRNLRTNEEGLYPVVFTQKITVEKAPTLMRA

T7: Bzz1-1, P38822
T7 sequence (P38822 478-572, looked up): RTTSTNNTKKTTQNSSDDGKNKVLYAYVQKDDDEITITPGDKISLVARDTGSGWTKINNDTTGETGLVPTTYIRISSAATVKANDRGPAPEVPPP

T8: Hof1, Q05080
T8 sequence (Q05080 590-669, looked up): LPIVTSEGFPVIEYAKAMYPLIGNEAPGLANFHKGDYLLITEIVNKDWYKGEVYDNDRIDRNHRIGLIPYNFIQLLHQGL

T9: Myo5, Q04439
T9 sequence (Q04439 1072-1160, looked up): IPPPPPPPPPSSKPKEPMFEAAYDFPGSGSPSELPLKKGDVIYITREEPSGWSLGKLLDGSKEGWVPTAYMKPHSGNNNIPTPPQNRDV

T10: Pin3, Q06449
T10 sequence (Q06449 53-122, looked up): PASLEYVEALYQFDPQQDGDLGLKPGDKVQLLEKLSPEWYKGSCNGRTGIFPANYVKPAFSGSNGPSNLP

T11: Lsb3, P43603
T11 sequence (P43603 385-451, looked up): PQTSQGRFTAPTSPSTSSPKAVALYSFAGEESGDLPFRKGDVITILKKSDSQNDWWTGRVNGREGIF

T12: Bzz1-2, P38822
T12 sequence (P38822 568-633, looked up): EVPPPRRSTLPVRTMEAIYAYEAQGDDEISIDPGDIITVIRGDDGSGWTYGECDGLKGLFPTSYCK

T13: Lsb1, P53281
T13 sequence (P53281 45-122, looked up): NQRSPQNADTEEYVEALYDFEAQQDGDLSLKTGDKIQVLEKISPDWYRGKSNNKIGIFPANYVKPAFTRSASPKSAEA

T14: Cdc25, P04821
T14 sequence (P04821 50-136, looked up): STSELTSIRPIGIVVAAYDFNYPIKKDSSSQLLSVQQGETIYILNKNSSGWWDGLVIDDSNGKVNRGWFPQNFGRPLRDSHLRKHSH

T15: Cyk3, Q07533
T15 sequence (Q07533 1-83, looked up): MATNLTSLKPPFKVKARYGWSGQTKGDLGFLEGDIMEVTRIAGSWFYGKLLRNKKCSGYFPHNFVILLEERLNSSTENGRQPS

T16: Lsb4, P32793
T16 sequence (P32793 402-468, looked up): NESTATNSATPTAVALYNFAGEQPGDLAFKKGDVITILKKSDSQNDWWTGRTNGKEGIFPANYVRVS

T17: Boi1, P38041
T17 sequence (P38041 1-86, looked up): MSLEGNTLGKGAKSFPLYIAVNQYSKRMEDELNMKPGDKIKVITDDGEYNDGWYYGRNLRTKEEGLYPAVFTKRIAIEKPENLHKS

T18: Sla1-3, P32790
T18 sequence (P32790 344-424, looked up): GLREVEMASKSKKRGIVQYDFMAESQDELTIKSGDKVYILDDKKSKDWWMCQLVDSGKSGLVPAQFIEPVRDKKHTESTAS

T19: Sla1-2, P32790
T19 sequence (P32790 60-140, looked up): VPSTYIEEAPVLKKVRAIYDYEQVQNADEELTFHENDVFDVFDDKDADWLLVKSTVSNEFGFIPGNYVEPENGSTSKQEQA

T20: Fus1, P11710
T20 sequence (P11710 432-512, looked up): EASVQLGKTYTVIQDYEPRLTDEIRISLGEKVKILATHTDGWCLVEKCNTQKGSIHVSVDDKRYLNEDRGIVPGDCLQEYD

T21: Hse1, P38753
T21 sequence (P38753 208-285, looked up): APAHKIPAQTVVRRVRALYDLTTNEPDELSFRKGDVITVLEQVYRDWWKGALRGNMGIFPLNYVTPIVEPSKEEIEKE


How the values were obtained:
Test in all cases: SPOT array
Bud14, P27637 = target: T1, Bud14, P27637; settings: median of control spots 956
Pex13, P80667 = target: T2, Pex13, P80667; settings: median of control spots 1341
Bbc1, P47068 = target: T3, Bbc1, P47068; settings: median of control spots 796
Abp1, P15891 = target: T4, Abp1, P15891; settings: median of control spots 935
Myo3, P36006 = settings: median of control spots 468
Nbp2, Q12163 = target: T5, Nbp2, Q12163; settings: median of control spots 357
Bem1-2, P29366 = settings: median of control spots 4347
Boi2, P39969 = target: T6, Boi2, P39969; settings: median of control spots 1161
GST = settings: median of control spots 978
Bzz1-1, P38822 = target: T7, Bzz1-1, P38822; settings: median of control spots 4446
Hof1, Q05080 = target: T8, Hof1, Q05080; settings: median of control spots 4086
Myo5, Q04439 = target: T9, Myo5, Q04439; settings: median of control spots 471
Pin3, Q06449 = target: T10, Pin3, Q06449; settings: median of control spots 2171
Lsb3, P43603 = target: T11, Lsb3, P43603; settings: median of control spots 406
Sho1, P40073 = settings: median of control spots 1148
Bzz1-2, P38822 = target: T12, Bzz1-2, P38822; settings: median of control spots 4538
Bem1-1, P29366 = settings: median of control spots 4282
Rvs167, P39743 = settings: median of control spots 2707
Lsb1, P53281 = target: T13, Lsb1, P53281; settings: median of control spots 388
Cdc25, P04821 = target: T14, Cdc25, P04821; settings: median of control spots 969
Cyk3, Q07533 = target: T15, Cyk3, Q07533; settings: median of control spots 1451
Lsb4, P32793 = target: T16, Lsb4, P32793; settings: median of control spots 397
Boi1, P38041 = target: T17, Boi1, P38041; settings: median of control spots 1162
Sla1-3, P32790 = target: T18, Sla1-3, P32790; settings: median of control spots 5475
Sla1-2, P32790 = target: T19, Sla1-2, P32790; settings: median of control spots 712
Fus1, P11710 = target: T20, Fus1, P11710; settings: median of control spots 1200
Hse1, P38753 = target: T21, Hse1, P38753; settings: median of control spots 1727

Chain of Rvs167, P39743 (P39743 419-482): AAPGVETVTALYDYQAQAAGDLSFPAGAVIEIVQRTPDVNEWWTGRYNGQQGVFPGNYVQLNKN
Chain of Sho1, P40073 (P40073 287-367): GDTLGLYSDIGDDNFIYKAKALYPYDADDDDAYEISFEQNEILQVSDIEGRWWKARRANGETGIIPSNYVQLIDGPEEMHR
Chain of Bem1-1, P29366 (P29366 55-141): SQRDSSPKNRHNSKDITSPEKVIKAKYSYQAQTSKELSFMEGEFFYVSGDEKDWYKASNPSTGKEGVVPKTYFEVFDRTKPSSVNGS
Chain of Bem1-2, P29366 (P29366 139-227): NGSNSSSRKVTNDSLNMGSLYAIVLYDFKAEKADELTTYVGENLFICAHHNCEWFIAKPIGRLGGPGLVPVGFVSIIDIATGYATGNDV

Row | Binder | SPOT intensity (Bud14, P27637) | SPOT intensity (Pex13, P80667) | SPOT intensity (Bbc1, P47068) | SPOT intensity (Abp1, P15891) | SPOT intensity (Myo3, P36006) | SPOT intensity (Nbp2, Q12163) | SPOT intensity (Bem1-2, P29366) | SPOT intensity (Boi2, P39969) | SPOT intensity (GST) | SPOT intensity (Bzz1-1, P38822) | SPOT intensity (Hof1, Q05080) | SPOT intensity (Myo5, Q04439) | SPOT intensity (Pin3, Q06449) | SPOT intensity (Lsb3, P43603) | SPOT intensity (Sho1, P40073) | SPOT intensity (Bzz1-2, P38822) | SPOT intensity (Bem1-1, P29366) | SPOT intensity (Rvs167, P39743) | SPOT intensity (Lsb1, P53281) | SPOT intensity (Cdc25, P04821) | further results
1 | LPMNIQPDLPPRKIM | 0 | 35 | 2 | 141 | 102 | 6 | 0 | 0 | 0 | 0 | 0 | 35 | 175 | 941 | 29 | 0 | 0 | 2810 | 285 | 0 | SPOT intensity (Cyk3, Q07533): 0; SPOT intensity (Lsb4, P32793): 1360; SPOT intensity (Boi1, P38041): 0; SPOT intensity (Sla1-3, P32790): 0; SPOT intensity (Sla1-2, P32790): 6; SPOT intensity (Fus1, P11710): 0; SPOT intensity (Hse1, P38753): 3
2 | APERAVPILPPRNNV | 0 | 536 | 13 | 4 | 66 | 0 | 2 | 1 | 0 | 1 | 63 | 0 | 13 | 771 | 7 | 0 | 1 | 1340 | 290 | 1 | SPOT intensity (Cyk3, Q07533): 0; SPOT intensity (Lsb4, P32793): 1220; SPOT intensity (Boi1, P38041): 0; SPOT intensity (Sla1-3, P32790): 0; SPOT intensity (Sla1-2, P32790): 0; SPOT intensity (Fus1, P11710): 0; SPOT intensity (Hse1, P38753): 1
3 | VQQDSLPKLPFRSWG | 0 | 490 | 5 | 0 | 0 | 0 | 0 | 2 | 0 | 0 | 1570 | 0 | 7 | 646 | 66 | 0 | 0 | 944 | 399 | 0 | SPOT intensity (Cyk3, Q07533): 0; SPOT intensity (Lsb4, P32793): 1310; SPOT intensity (Boi1, P38041): 0; SPOT intensity (Sla1-3, P32790): 0; SPOT intensity (Sla1-2, P32790): 0; SPOT intensity (Fus1, P11710): 1; SPOT intensity (Hse1, P38753): 0

More lines, main results first:

Row | SPOT intensity (Bud14, P27637) | SPOT intensity (Pex13, P80667) | SPOT intensity (Bbc1, P47068) | SPOT intensity (Abp1, P15891) | SPOT intensity (Myo3, P36006) | SPOT intensity (Nbp2, Q12163) | SPOT intensity (Bem1-2, P29366) | SPOT intensity (Boi2, P39969) | SPOT intensity (GST) | SPOT intensity (Bzz1-1, P38822) | SPOT intensity (Hof1, Q05080) | SPOT intensity (Myo5, Q04439) | SPOT intensity (Pin3, Q06449) | SPOT intensity (Lsb3, P43603) | SPOT intensity (Sho1, P40073) | SPOT intensity (Bzz1-2, P38822) | SPOT intensity (Bem1-1, P29366) | SPOT intensity (Rvs167, P39743) | SPOT intensity (Lsb1, P53281) | SPOT intensity (Cdc25, P04821) | Binder | further results
4 | 1 | 10 | 15 | 0 | 0 | 47 | 13 | 1 | 0 | 1 | 5 | 0 | 9 | 0 | 5 | 2 | 2 | 0 | 2 | 59 | FVLRYYILIPHEQWD | SPOT intensity (Cyk3, Q07533): 0; SPOT intensity (Lsb4, P32793): 0; SPOT intensity (Boi1, P38041): 6; SPOT intensity (Sla1-3, P32790): 3; SPOT intensity (Sla1-2, P32790): 3; SPOT intensity (Fus1, P11710): 42; SPOT intensity (Hse1, P38753): 2
5 | 29 | 127 | 663 | 489 | 164 | 1100 | 0 | 70 | 0 | 3 | 25 | 69 | 150 | 166 | 718 | 109 | 0 | 6 | 452 | 490 | VGFRLALKFPSRITG | SPOT intensity (Cyk3, Q07533): 25; SPOT intensity (Lsb4, P32793): 207; SPOT intensity (Boi1, P38041): 152; SPOT intensity (Sla1-3, P32790): 124; SPOT intensity (Sla1-2, P32790): 52; SPOT intensity (Fus1, P11710): 430; SPOT intensity (Hse1, P38753): 113
6 | 0 | 79 | 0 | 3 | 0 | 0 | 1 | 0 | 0 | 0 | 950 | 0 | 0 | 923 | 14 | 3 | 1 | 0 | 0 | 0 | QQEQNTPPLPPKPKS | SPOT intensity (Cyk3, Q07533): 0; SPOT intensity (Lsb4, P32793): 776; SPOT intensity (Boi1, P38041): 0; SPOT intensity (Sla1-3, P32790): 3; SPOT intensity (Sla1-2, P32790): 1; SPOT intensity (Fus1, P11710): 0; SPOT intensity (Hse1, P38753): 184

— paper PMC2756588
